# System: Escherichia coli TOP10
# Assay: shrunken log2 fold change of peptide-encoding DNA abundance (4.5 h post-induction vs induction); higher = less antimicrobial activity (less host growth inhibition)
# Settings: time post-induction: 4.5 h; library: site-saturation at positions 5, 18, 19, 20
# 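Note: peptides expressed intracellularly from a pBAD plasmid library in pooled LB shake-flask culture, induced with 0.3% L-arabinose, DNA abundance read by NGS, three biological replicates, DESeq2 with apeglm shrinkage.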
row,Sequence,shrunken log2 fold change
1,RRIRDRPPRLPRPRPRPKAFPRP,-0.00149
2,RRIRIRPPRLPRPRPRPIEKPRP,-0.0304
3,RRIRGRPPRLPRPRPRPHRTPRP,0.271
4,RRIRERPPRLPRPRPRPQKGPRP,-0.213
5,RRIRYRPPRLPRPRPRPCVHPRP,-0.0274
6,RRIRMRPPRLPRPRPRPMWNPRP,0.0246
7,RRIRHRPPRLPRPRPRPYWNPRP,-0.98
8,RRIRARPPRLPRPRPRPYPIPRP,-0.249
9,RRIRLRPPRLPRPRPRPWVYPRP,0.0113
10,RRIRCRPPRLPRPRPRPLMMPRP,0.239
11,RRIRHRPPRLPRPRPRPKNGPRP,-0.0347
12,RRIRERPPRLPRPRPRPLFPPRP,-0.264
13,RRIRCRPPRLPRPRPRPDCSPRP,0.072
14,RRIRNRPPRLPRPRPRPLKCPRP,0.0144
15,RRIRCRPPRLPRPRPRPTYCPRP,-0.279
16,RRIRHRPPRLPRPRPRPAWSPRP,-0.0185
17,RRIRARPPRLPRPRPRPIWHPRP,0.331
18,RRIRDRPPRLPRPRPRPHLPPRP,-0.0459
19,RRIRSRPPRLPRPRPRPRWYPRP,-0.402
20,RRIRFRPPRLPRPRPRPDPIPRP,0.159
21,RRIRDRPPRLPRPRPRPSQVPRP,-0.426
22,RRIRERPPRLPRPRPRPYKVPRP,-0.0366
23,RRIRHRPPRLPRPRPRPIQDPRP,-0.00151
24,RRIRQRPPRLPRPRPRPWHHPRP,-0.00612
25,RRIRLRPPRLPRPRPRPDTGPRP,-0.243

row,Sequence,shrunken log2 fold change
1,RRIRMRPPRLPRPRPRPGKVPRP,0.101
2,RRIRPRPPRLPRPRPRPGAIPRP,0.0588
3,RRIRRRPPRLPRPRPRPFILPRP,-0.293
4,RRIRLRPPRLPRPRPRPQAFPRP,0.0474
5,RRIRVRPPRLPRPRPRPALWPRP,0.57
6,RRIRNRPPRLPRPRPRPPPPPRP,1.25
7,RRIRPRPPRLPRPRPRPHETPRP,-0.164
8,RRIRRRPPRLPRPRPRPAWQPRP,0.561
9,RRIRFRPPRLPRPRPRPTQQPRP,0.312
10,RRIRQRPPRLPRPRPRPQMQPRP,0.131
11,RRIRFRPPRLPRPRPRPTCAPRP,0.564
12,RRIRTRPPRLPRPRPRPSFGPRP,0.129
13,RRIRYRPPRLPRPRPRPRIYPRP,-0.569
14,RRIRRRPPRLPRPRPRPEYFPRP,0.2
15,RRIRVRPPRLPRPRPRPNMDPRP,-0.506
16,RRIRGRPPRLPRPRPRPWHHPRP,-0.26
17,RRIRWRPPRLPRPRPRPGVEPRP,0.579
18,RRIRNRPPRLPRPRPRPKATPRP,-0.0881
19,RRIRRRPPRLPRPRPRPKPRPRP,0.825
20,RRIRGRPPRLPRPRPRPIDYPRP,-0.0822
21,RRIRPRPPRLPRPRPRPSHEPRP,0.0992
22,RRIRKRPPRLPRPRPRPYGTPRP,-0.272
23,RRIRPRPPRLPRPRPRPCFDPRP,0.0273
24,RRIRQRPPRLPRPRPRPWCSPRP,-0.0146
25,RRIRERPPRLPRPRPRPITCPRP,0.0303

row,Sequence,shrunken log2 fold change
1,RRIRDRPPRLPRPRPRPAAWPRP,1.56
2,RRIRRRPPRLPRPRPRPVTAPRP,0.452
3,RRIRWRPPRLPRPRPRPIVTPRP,0.0938
4,RRIRMRPPRLPRPRPRPIVNPRP,-0.0202
5,RRIRIRPPRLPRPRPRPSKSPRP,-0.413
6,RRIRVRPPRLPRPRPRPFVDPRP,-0.385
7,RRIRKRPPRLPRPRPRPWNTPRP,-0.332
8,RRIRFRPPRLPRPRPRPPNRPRP,0.266
9,RRIRVRPPRLPRPRPRPCMIPRP,-0.792
10,RRIRKRPPRLPRPRPRPMQQPRP,-0.000844
11,RRIRERPPRLPRPRPRPVADPRP,-0.0439
12,RRIRLRPPRLPRPRPRPQWTPRP,0.107
13,RRIRSRPPRLPRPRPRPRCFPRP,0.165
14,RRIRLRPPRLPRPRPRPLPAPRP,0.585
15,RRIRPRPPRLPRPRPRPMNDPRP,-0.329
16,RRIRGRPPRLPRPRPRPVFRPRP,0.375
17,RRIRLRPPRLPRPRPRPFFYPRP,-0.343
18,RRIRSRPPRLPRPRPRPLLQPRP,-0.227
19,RRIRHRPPRLPRPRPRPRDCPRP,-0.0851
20,RRIRSRPPRLPRPRPRPKEQPRP,-0.0517
21,RRIRPRPPRLPRPRPRPCKIPRP,-0.0494
22,RRIRMRPPRLPRPRPRPPIYPRP,-0.0765
23,RRIRDRPPRLPRPRPRPCDRPRP,-0.0944
24,RRIRHRPPRLPRPRPRPRYKPRP,-0.424
25,RRIRLRPPRLPRPRPRPLHYPRP,-0.00799
